According to patent US20210388110A1 (published 2021):
Changes are numbered by the printed parent chain.

B1: TR01H040-E22Hh/none-Hi-Kn010G3/TR01L008-k0 (antibody, human IgG1, kappa, L234A L235A, N297A)
heavy: QVQLVESGGGLVQPGRSLRLSCAASGFTFSNAWMHWVRQAPGKGLEWVAQIKDKSQNYATYYAESVKGRFTISRADSKNSIYLQMNSLKTEDTAVYYCRYVHYSASYGVDAWGQGTTVTVSSASTKGPSVFPLAPSSKSTSGGTAALGCLVKDYFPEPVTVSWNSGALTSGVHTFPAVLQSSGLYSLSSVVTVPSSSLGTQTYICNVNHKPSNTKVDKKVEPKSCDKTHTCPPCPAPEAAGGPSVFLFPPKPKDTLMISRTPEVTCVVVDVSHEDPEVKFNWYVDGVEVHNAKTKPREEQYASTYRVVSVLTVLHQDWLNGKEYKCKVSNKALPAPIEKTISKAKGQPREPQVYTLPPSRCELTKNQVSLSCAVKGFYPSDIAVEWESNGQPENNYKTTPPVLDSDGSFFLVSKLTVDKSRWQQGNVFSCSVMHEALHNHYTQKSLSLSPDYKDDDDK
chain: EPKSSDKTHTCPPCPAPELLGGPSVFLFPPKPKDTLMISRTPEVTCVVVDVSHEDPEVKFNWYVDGVEVHNAKTKPREEQYNSTYRVVSVLTVLHQDWLNGKEYKCKVSNKALPAPIEKTISKAKGQPREPQVCTLPPSRDELTKNQVSLWCLVKGFYPSDIAVEWESNGQPENNYKTTPPVLDSDGSFFLYSKLTVDKSRWQQGNVFSCSVMHEALHNRYTQKSLSLSP
light: DIVMTQSPLSLPVTPGEPASISCQASESLVHSNRNTYLHWYQQKPGQAPRLLIYKVSNRFRGVPDRFSGSGSGTDFTLKISRVEAEDVGVYYCGQGTQVPYTFGQGTKLEIKRTVAAPSVFIFPPSDEQLKSGTASVVCLLNNFYPREAKVQWKVDNALQSGNSQESVTEQDSKDSTYSLSSTLTLSKADYEKHKVYACEVTHQGLSSPVTKSFNRGEC
notes: single-arm
B2: TR01H066-E22Hh/none-Hi-Kn010G3/L0000-k0 (antibody, human IgG1, kappa, L234A L235A, N297A)
heavy: B1 heavy with I81L, S104A
chain: B1 chain
light: B1 light with Q24R, A25S, E27Q, R61S
notes: single-arm
B3: TR01H040-E22Hh/none-Hi-Kn010G3/TR01L015-k0 (antibody, human IgG1, kappa, L234A L235A, N297A)
heavy: B1 heavy
chain: B1 chain
light: B1 light with Q24R, A25S, E27Q, L29P, Q42L, A48S, R50Q, R61S
notes: single-arm
B4: TR01H061-E22Hh/none-Hi-Kn010G3/L0222-k0 (antibody, human IgG1, kappa, L234A L235A, N297A)
heavy: B1 heavy with S104A, A111I
chain: B1 chain
light: B1 light with Q24R, A25S, E27Q, L29P, L38I, H39Q, R61S, G94Y
notes: single-arm
B5: TR01H040-E22Hh/none-Hi-Kn010G3/TR01L009-k0 (antibody, human IgG1, kappa, L234A L235A, N297A)
heavy: B1 heavy
chain: B1 chain
light: B1 light with Q24R, A25S, E27Q, Q42L, A48S, R50Q
notes: single-arm
B6: TR01H051-E22Hh/none-Hi-Kn010G3/L0000-k0 (antibody, human IgG1, kappa, L234A L235A, N297A)
heavy: B1 heavy with Q56N, I81L, A111I
chain: B1 chain
light: B1 light with Q24R, A25S, E27Q, R61S
notes: single-arm
B7: TR01H048-E22Hh/none-Hi-Kn010G3/L0000-k0 (antibody, human IgG1, kappa, L234A L235A, N297A)
heavy: B1 heavy with A75D, A111I
chain: B1 chain
light: B1 light with Q24R, A25S, E27Q, R61S
notes: single-arm
B8: TR01H040-E22Hh/none-Hi-Kn010G3/TR01L010-k0 (antibody, human IgG1, kappa, L234A L235A, N297A)
heavy: B1 heavy
chain: B1 chain
light: B1 light with Q24R, A25S, E27Q, L109V, K112E
notes: single-arm
B9: TR01H067-E22Hh/none-Hi-Kn010G3/L0201-k0 (antibody, human IgG1, kappa, L234A L235A, N297A)
heavy: B1 heavy with A75D, I81L, S104A
chain: B1 chain
light: B1 light with Q24R, A25S, E27Q, S28P, L29P, R61S
notes: single-arm
B10: TR01H040-E22Hh/none-Hi-Kn010G3/TR01L016-k0 (antibody, human IgG1, kappa, L234A L235A, N297A)
heavy: B1 heavy
chain: B1 chain
light: B1 light with Q24R, A25S, E27Q, L29P, Q42L, A48S, R50Q, R61S, G94Y
notes: single-arm
B11: TR01H052-E22Hh/none-Hi-Kn010G3/L0000-k0 (antibody, human IgG1, kappa, L234A L235A, N297A)
heavy: B1 heavy with I81L, A111I
chain: B1 chain
light: B1 light with Q24R, A25S, E27Q, R61S
notes: single-arm
B12: TR01H067-E22Hh/none-Hi-Kn010G3/L0203-k0 (antibody, human IgG1, kappa, L234A L235A, N297A)
heavy: B1 heavy with A75D, I81L, S104A
chain: B1 chain
light: B1 light with Q24R, A25S, E27Q, L29P, L38I, R61S
notes: single-arm
B13: TR01H040-E22Hh/none-Hi-Kn010G3/TR01L018-k0 (antibody, human IgG1, kappa, L234A L235A, N297A)
heavy: B1 heavy
chain: B1 chain
light: B1 light with L29P, Q42L, A48S, R50Q, R61S
notes: single-arm
B14: TR01H050-E22Hh/none-Hi-Kn010G3/L0000-k0 (antibody, human IgG1, kappa, L234A L235A, N297A)
heavy: B1 heavy with A75D, A111Y
chain: B1 chain
light: B1 light with Q24R, A25S, E27Q, R61S
notes: single-arm
B15: TR01H065-E22Hh/none-Hi-Kn010G3/L0000-k0 (antibody, human IgG1, kappa, L234A L235A, N297A)
heavy: B1 heavy with A75D, S104A
chain: B1 chain
light: B1 light with Q24R, A25S, E27Q, R61S
notes: single-arm
B16: TR01H067-E22Hh/none-Hi-Kn010G3/L0200-k0 (antibody, human IgG1, kappa, L234A L235A, N297A)
heavy: B1 heavy with A75D, I81L, S104A
chain: B1 chain
light: B1 light with Q24R, A25P, E27Q, L29P, R61S
notes: single-arm
B17: TR01H040-E22Hh/none-Hi-Kn010G3/TR01L011-k0 (antibody, human IgG1, kappa, L234A L235A, N297A)
heavy: B1 heavy
chain: B1 chain
light: B1 light with L109V, K112E
notes: single-arm
B18: TR01H063-E22Hh/none-Hi-Kn010G3/L0000-k0 (antibody, human IgG1, kappa, L234A L235A, N297A)
heavy: B1 heavy with L11V, R16G, S104A
chain: B1 chain
light: B1 light with Q24R, A25S, E27Q, R61S
notes: single-arm
B19: TR01H040-E22Hh/none-Hi-Kn010G3/TR01L012-k0 (antibody, human IgG1, kappa, L234A L235A, N297A)
heavy: B1 heavy
chain: B1 chain
light: B1 light with Q24R, A25S, E27Q, Q42L, A48S, R50Q, L109V, K112E
notes: single-arm
B20: TR01H061-E22Hh/none-Hi-Kn010G3/L0000-k0 (antibody, human IgG1, kappa, L234A L235A, N297A)
heavy: B1 heavy with S104A, A111I
chain: B1 chain
light: B1 light with Q24R, A25S, E27Q, R61S
notes: single-arm
B21: TR01H046-E22Hh/none-Hi-Kn010G3/L0000-k0 (antibody, human IgG1, kappa, L234A L235A, N297A)
heavy: B1 heavy with A23S, A111Y
chain: B1 chain
light: B1 light with Q24R, A25S, E27Q, R61S
notes: single-arm
B22: TR01H047-E22Hh/none-Hi-Kn010G3/L0000-k0 (antibody, human IgG1, kappa, L234A L235A, N297A)
heavy: B1 heavy with Q56N, A75D, A111I
chain: B1 chain
light: B1 light with Q24R, A25S, E27Q, R61S
notes: single-arm
B23: TR01H062-E22Hh/none-Hi-Kn010G3/L0000-k0 (antibody, human IgG1, kappa, L234A L235A, N297A)
heavy: B1 heavy with S104A
chain: B1 chain
light: B1 light with Q24R, A25S, E27Q, R61S
notes: single-arm
B24: TR01H041-E22Hh/none-Hi-Kn010G3/L0000-k0 (antibody, human IgG1, kappa, L234A L235A, N297A)
heavy: B1 heavy with A111Y
chain: B1 chain
light: B1 light with Q24R, A25S, E27Q, R61S
notes: single-arm
B25: TR01H042-E22Hh/none-Hi-Kn010G3/L0000-k0 (antibody, human IgG1, kappa, L234A L235A, N297A)
heavy: B1 heavy with L11V, R16G
chain: B1 chain
light: B1 light with Q24R, A25S, E27Q, R61S
notes: single-arm
B26: TR01H040-E22Hh/none-Hi-Kn010G3/TR01L019-k0 (antibody, human IgG1, kappa, L234A L235A, N297A)
heavy: B1 heavy
chain: B1 chain
light: B1 light with L29P, Q42L, A48S, R50Q, R61S, G94Y
notes: single-arm
B27: TR01H044-E22Hh/none-Hi-Kn010G3/L0000-k0 (antibody, human IgG1, kappa, L234A L235A, N297A)
heavy: B1 heavy with A23S, A111I
chain: B1 chain
light: B1 light with Q24R, A25S, E27Q, R61S
notes: single-arm
B28: TR01H049-E22Hh/none-Hi-Kn010G3/L0000-k0 (antibody, human IgG1, kappa, L234A L235A, N297A)
heavy: B1 heavy with A75D
chain: B1 chain
light: B1 light with Q24R, A25S, E27Q, R61S
notes: single-arm
B29: TR01H043-E22Hh/none-Hi-Kn010G3/L0000-k0 (antibody, human IgG1, kappa, L234A L235A, N297A)
heavy: B1 heavy with A23S, Q56N, A111I
chain: B1 chain
light: B1 light with Q24R, A25S, E27Q, R61S
notes: single-arm
B30: TR01H055-E22Hh/none-Hi-Kn010G3/L0000-k0 (antibody, human IgG1, kappa, L234A L235A, N297A)
heavy: B1 heavy with Q56N, A75D, I81L, A111I
chain: B1 chain
light: B1 light with Q24R, A25S, E27Q, R61S
notes: single-arm
B31: TR01H064-E22Hh/none-Hi-Kn010G3/L0000-k0 (antibody, human IgG1, kappa, L234A L235A, N297A)
heavy: B1 heavy with A23S, S104A
chain: B1 chain
light: B1 light with Q24R, A25S, E27Q, R61S
notes: single-arm
B32: TR01H061-E22Hh/none-Hi-Kn010G3/L0215-k0 (antibody, human IgG1, kappa, L234A L235A, N297A)
heavy: B1 heavy with S104A, A111I
chain: B1 chain
light: B1 light with Q24R, A25S, E27Q, S28P, L29P, L38I, R61S
notes: single-arm
B33: TR01H040-E22Hh/none-Hi-Kn010G3/TR01L013-k0 (antibody, human IgG1, kappa, L234A L235A, N297A)
heavy: B1 heavy
chain: B1 chain
light: B1 light with Q42L, A48S, R50Q, L109V, K112E
notes: single-arm
B34: TR01H061-E22Hh/none-Hi-Kn010G3/L0226-k0 (antibody, human IgG1, kappa, L234A L235A, N297A)
heavy: B1 heavy with S104A, A111I
chain: B1 chain
light: B1 light with Q24R, A25S, E27Q, L29P, L38I, R61S, G94I
notes: single-arm
B35: TR01H045-E22Hh/none-Hi-Kn010G3/L0000-k0 (antibody, human IgG1, kappa, L234A L235A, N297A)
heavy: B1 heavy with A23S
chain: B1 chain
light: B1 light with Q24R, A25S, E27Q, R61S
notes: single-arm
B36: TR01H061-E22Hh/none-Hi-Kn010G3/L0200-k0 (antibody, human IgG1, kappa, L234A L235A, N297A)
heavy: B1 heavy with S104A, A111I
chain: B1 chain
light: B1 light with Q24R, A25P, E27Q, L29P, R61S
notes: single-arm

Biological target: T1, soluble human CD3ε chain (human, UniProt P07766 23-126, limits assumed)
T1 construct: the text says soluble human CD3ε chain; also called human CD3 epsilon chain
T1 sequence (P07766 23-126 limits assumed): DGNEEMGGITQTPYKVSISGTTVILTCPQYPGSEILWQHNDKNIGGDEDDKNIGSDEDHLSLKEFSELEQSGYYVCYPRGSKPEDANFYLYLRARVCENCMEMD
Assay: SPR (Biacore)

| Kd | Binder |
| --- | --- |
| 29.3 nM | B1 |
| 60.2 nM | B2 |
| 39.5 nM | B3 |
| 18.8 nM | B4 |
| 35.6 nM | B5 |
| 29.1 nM | B6 |
| 45.2 nM | B7 |
| 32.8 nM | B8 |
| 59.3 nM | B9 |
| 2.52 nM | B10 |
| 62.7 nM | B11 |
| 47.9 nM | B12 |
| 45.1 nM | B13 |
| 57.6 nM | B14 |
| 43.1 nM | B15 |
| 60.3 nM | B16 |
| 35.7 nM | B17 |
| 43.5 nM | B18 |

| Kd | Binder |
| --- | --- |
| 42.2 nM | B19 |
| 17.1 nM | B20 |
| 42.3 nM | B21 |
| 20.4 nM | B22 |
| 31.3 nM | B23 |
| 31.6 nM | B24 |
| 44.8 nM | B25 |
| 3.2 nM | B26 |
| 35.2 nM | B27 |
| 67.9 nM | B28 |
| 15.2 nM | B29 |
| 38.8 nM | B30 |
| 30.7 nM | B31 |
| 15.4 nM | B32 |
| 41.5 nM | B33 |
| 47.1 nM | B34 |
| 52.2 nM | B35 |
| 12.7 nM | B36 |
